# Laboratory results: patent US20250382602
# Substitutions are numbered along the chain they refer to.
# What was measured:
# Conditions in all cases: nanopore translocation; background mutations not given
# [1] = target: T1, Dda 1993 K177I K177I (Enterobacteria phage T4) (UniProt P32270)
# T1 sequence: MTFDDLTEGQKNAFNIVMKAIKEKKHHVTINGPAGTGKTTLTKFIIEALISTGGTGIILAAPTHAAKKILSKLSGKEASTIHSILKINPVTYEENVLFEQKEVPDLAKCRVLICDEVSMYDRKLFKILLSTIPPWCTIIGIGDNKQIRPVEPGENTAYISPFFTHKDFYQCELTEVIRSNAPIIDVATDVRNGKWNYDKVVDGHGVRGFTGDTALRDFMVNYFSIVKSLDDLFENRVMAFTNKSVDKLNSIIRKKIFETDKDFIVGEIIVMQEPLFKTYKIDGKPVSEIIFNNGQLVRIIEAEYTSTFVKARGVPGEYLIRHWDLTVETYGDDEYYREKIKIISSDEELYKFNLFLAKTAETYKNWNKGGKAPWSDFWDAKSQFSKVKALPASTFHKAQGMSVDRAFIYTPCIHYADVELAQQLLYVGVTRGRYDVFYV
# [2] = target: T2, Dda 1993 K177E K177E (Enterobacteria phage T4) (UniProt P32270)
# T2 sequence: T1 sequence with I177E
# [3] = target: T3, Dda 1993 K177V K177V (Enterobacteria phage T4) (UniProt P32270)
# T3 sequence: T1 sequence with I177V
# [4] = target: T4, Dda 1993 K177R K177R (Enterobacteria phage T4) (UniProt P32270)
# T4 sequence: T1 sequence with I177R
# [5] = target: T5, Dda 1993 K177M K177M (Enterobacteria phage T4) (UniProt P32270)
# T5 sequence: T1 sequence with I177M
substance,measurement,setting,value
barcoded 3.6 kb DNA analyte ligated to sequencing Y adaptor,activity (bps speed delta vs control),[1],43
same,activity (bps speed delta vs control),[2],58.7
same,activity (bps speed delta vs control),[3],-16
same,activity (bps speed delta vs control),[4],21.7
same,activity (bps speed delta vs control),[5],48.3
